Experimental data reported in US20190010233A1.

Tests used:
[1] = molecular target: recombinant human PD-1^ECD-hFc protein (human) (UniProt Q15116); assay: ELISA, coated PD-1-hFc, 0.2 µg/mL
[2] = molecular target: recombinant human PD-1^ECD-hFc protein (human) (UniProt Q15116); assay: ELISA, coated PD-1-hFc, 0.00001 µg/mL
[3] = molecular target: recombinant human PD-1^ECD-hFc protein (human) (UniProt Q15116); assay: ELISA, coated PD-1-hFc, 0.0001 µg/mL
[4] = molecular target: recombinant human PD-1^ECD-hFc protein (human) (UniProt Q15116); assay: ELISA, coated PD-1-hFc, 0.0003 µg/mL
[5] = molecular target: recombinant human PD-1^ECD-hFc protein (human) (UniProt Q15116); assay: ELISA, coated PD-1-hFc, 1 µg/mL
[6] = molecular target: recombinant human PD-1^ECD-hFc protein (human) (UniProt Q15116); assay: ELISA, coated PD-1-hFc, 0.04 µg/mL
[7] = molecular target: recombinant human PD-1^ECD-hFc protein (human) (UniProt Q15116); assay: ELISA, coated PD-1-hFc, 0.008 µg/mL
[8] = molecular target: recombinant human PD-1^ECD-hFc protein (human) (UniProt Q15116); assay: ELISA, coated PD-1-hFc, 0.0016 µg/mL

Sequence of recombinant human PD-1^ECD-hFc protein (human) (Q15116 25-167): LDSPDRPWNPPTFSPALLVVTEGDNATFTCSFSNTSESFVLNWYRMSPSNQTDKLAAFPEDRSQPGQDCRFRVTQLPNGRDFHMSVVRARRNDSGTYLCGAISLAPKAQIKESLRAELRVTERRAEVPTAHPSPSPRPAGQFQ

OD450 nm [1]: 0.1
OD450 nm [2]: 0.09
OD450 nm [3]: 0.12
OD450 nm [4]: 0.255
OD450 nm [5]: 0.51
OD450 nm [6]: 0.49
OD450 nm [7]: 0.135
OD450 nm [8]: 0.19
Substance: control protein (biotinylated non-PD-L1^ECD-hFc)
